Measurements from patent publication US20240261333A1, “NOVEL TARGETS FOR ENHANCING ANTI-TUMOR IMMUNITY” (THE BROAD INSTITUTE, INC., priority 2021, published 2024).

What was measured:
RPS18 = RPS18 (UniProt P62269); assay: co-IP, IgG control, C-FLAG B3GNT2 cell lysate, mass spectrometry
DEFA3 = DEFA3 (UniProt P59666); assay: as above
RPL27A [1] = biological target: RPL27A (UniProt P46776); assay: as above
RPL3 = RPL3 (UniProt P39023); assay: as above
CDSN [2] = biological target: CDSN (UniProt Q15517); assay: as above
RPS16 = RPS16 (UniProt P62249); assay: as above
TNKS1BP1 = TNKS1BP1 (UniProt Q9C0C2); assay: as above
HSPB1 = HSPB1 (UniProt P04792); assay: as above
RPS19 = RPS19 (UniProt P39019); assay: as above
ARG1 = ARG1 (UniProt P05089); assay: as above
RPL5 = RPL5 (UniProt P46777); assay: as above
DNAJA2 = DNAJA2 (UniProt O60884); assay: as above
NCCRP1 = NCCRP1 (UniProt Q6ZVX7); assay: as above
HIST1H1E = HIST1H1E (UniProt P10412); assay: as above
ITGB3 = ITGB3 (UniProt P05106); assay: as above
SRSF3 = SRSF3 (UniProt P84103); assay: as above
SRSF1 = SRSF1 (UniProt Q07955); assay: as above
RPS13 = RPS13 (UniProt P62277); assay: as above
TAGLN = TAGLN (UniProt Q01995); assay: as above
TXN = TXN (UniProt P10599); assay: as above
RPS23 = RPS23 (UniProt P62266); assay: as above
EIF4G1 = EIF4G1 (UniProt Q04637); assay: as above
PBXIP1 = PBXIP1 (UniProt Q96AQ6); assay: as above
POF1B = POF1B (UniProt Q8WVV4); assay: as above
RPL35 = RPL35 (UniProt P42766); assay: as above
MTCH2 = MTCH2 (UniProt Q9Y6C9); assay: as above
RPS2 = RPS2 (UniProt P15880); assay: as above
RPS8 = RPS8 (UniProt P62241); assay: as above
CFL1 = CFL1 (UniProt P23528); assay: as above
RPL37A = RPL37A (UniProt P61513); assay: as above
HNRNPU = HNRNPU (UniProt Q00839); assay: as above
MTDH [3] = biological target: MTDH (UniProt Q86UE4); assay: as above
RPL19 = RPL19 (UniProt P84098); assay: as above
SSRP1 = SSRP1 (UniProt Q08945); assay: as above
TMEM59 = TMEM59 (UniProt Q9BXS4); assay: as above
PSMA7 = PSMA7 (UniProt O14818); assay: as above
RPL22 = RPL22 (UniProt P35268); assay: as above
LIMA1 = LIMA1 (UniProt Q9UHB6); assay: as above
RPL27A [4] = biological target: RPL27A (UniProt P46776); assay: co-IP, anti-FLAG, N-FLAG B3GNT2 cell lysate, mass spectrometry
CDSN [5] = biological target: CDSN (UniProt Q15517); assay: as above
MTDH [6] = biological target: MTDH (UniProt Q86UE4); assay: as above

Chain of CDSN (Q15517 33-529 limits assumed): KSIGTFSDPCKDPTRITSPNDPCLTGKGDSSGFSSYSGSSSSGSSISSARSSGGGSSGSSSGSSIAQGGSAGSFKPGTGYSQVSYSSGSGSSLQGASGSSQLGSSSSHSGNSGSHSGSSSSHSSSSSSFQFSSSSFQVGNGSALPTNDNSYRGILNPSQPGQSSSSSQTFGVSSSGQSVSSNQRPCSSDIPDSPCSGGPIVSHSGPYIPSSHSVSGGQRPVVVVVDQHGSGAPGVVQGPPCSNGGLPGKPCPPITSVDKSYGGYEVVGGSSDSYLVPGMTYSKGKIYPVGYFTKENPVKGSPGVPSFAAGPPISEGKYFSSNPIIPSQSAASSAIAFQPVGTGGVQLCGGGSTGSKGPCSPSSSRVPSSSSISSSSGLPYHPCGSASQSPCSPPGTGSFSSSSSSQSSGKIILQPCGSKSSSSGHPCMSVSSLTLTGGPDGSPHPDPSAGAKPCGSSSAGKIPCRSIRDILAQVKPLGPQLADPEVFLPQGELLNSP
Chain of EIF4G1 (Q04637 41-1599 limits assumed): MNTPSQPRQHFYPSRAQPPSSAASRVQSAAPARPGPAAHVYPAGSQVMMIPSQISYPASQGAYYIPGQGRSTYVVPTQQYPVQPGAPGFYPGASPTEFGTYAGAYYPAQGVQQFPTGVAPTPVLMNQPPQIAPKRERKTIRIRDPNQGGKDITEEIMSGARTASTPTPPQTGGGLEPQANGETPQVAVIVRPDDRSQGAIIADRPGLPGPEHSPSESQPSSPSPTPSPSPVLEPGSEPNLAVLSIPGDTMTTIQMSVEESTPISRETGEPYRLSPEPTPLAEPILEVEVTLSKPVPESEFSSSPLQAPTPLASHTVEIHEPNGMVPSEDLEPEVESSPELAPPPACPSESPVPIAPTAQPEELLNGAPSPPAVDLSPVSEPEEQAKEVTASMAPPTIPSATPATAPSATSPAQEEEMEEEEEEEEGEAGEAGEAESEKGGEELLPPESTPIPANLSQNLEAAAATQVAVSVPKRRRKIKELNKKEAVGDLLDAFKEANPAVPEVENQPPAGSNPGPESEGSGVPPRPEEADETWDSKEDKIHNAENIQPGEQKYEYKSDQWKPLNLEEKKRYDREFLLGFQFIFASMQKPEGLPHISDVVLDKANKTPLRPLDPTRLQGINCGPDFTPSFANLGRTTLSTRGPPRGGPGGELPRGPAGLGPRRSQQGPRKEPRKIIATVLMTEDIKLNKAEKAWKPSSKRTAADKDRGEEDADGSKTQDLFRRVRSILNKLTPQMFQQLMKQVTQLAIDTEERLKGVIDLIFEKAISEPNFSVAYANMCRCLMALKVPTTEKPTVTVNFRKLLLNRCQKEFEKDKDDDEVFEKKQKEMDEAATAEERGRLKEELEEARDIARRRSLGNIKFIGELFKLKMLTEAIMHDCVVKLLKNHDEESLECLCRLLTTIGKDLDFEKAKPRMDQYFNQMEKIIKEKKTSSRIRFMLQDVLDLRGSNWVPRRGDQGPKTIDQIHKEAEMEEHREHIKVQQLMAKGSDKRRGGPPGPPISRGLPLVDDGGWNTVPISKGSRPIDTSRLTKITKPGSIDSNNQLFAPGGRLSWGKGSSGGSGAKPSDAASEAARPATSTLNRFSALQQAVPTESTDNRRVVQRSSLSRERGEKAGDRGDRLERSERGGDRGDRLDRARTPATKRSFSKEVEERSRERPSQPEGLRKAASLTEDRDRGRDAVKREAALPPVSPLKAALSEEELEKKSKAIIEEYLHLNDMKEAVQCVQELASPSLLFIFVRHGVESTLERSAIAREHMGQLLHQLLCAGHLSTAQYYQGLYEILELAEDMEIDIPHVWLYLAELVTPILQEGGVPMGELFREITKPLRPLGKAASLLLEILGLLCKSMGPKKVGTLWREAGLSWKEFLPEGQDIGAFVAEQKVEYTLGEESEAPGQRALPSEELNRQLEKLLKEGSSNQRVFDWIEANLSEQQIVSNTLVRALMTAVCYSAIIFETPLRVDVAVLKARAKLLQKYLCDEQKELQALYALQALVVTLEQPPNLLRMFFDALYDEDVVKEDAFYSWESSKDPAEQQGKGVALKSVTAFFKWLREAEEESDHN
Chain of TXN (P10599 2-105 limits assumed): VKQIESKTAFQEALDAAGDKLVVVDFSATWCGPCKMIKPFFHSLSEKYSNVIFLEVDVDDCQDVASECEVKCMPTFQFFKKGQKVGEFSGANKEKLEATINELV
Chain of SRSF3 (P84103 whole entry): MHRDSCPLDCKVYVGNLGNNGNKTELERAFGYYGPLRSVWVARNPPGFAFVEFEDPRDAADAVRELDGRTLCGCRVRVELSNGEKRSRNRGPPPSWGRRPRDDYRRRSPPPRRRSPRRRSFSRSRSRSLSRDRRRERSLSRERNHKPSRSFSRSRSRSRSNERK
Chain of HSPB1 (P04792 whole entry): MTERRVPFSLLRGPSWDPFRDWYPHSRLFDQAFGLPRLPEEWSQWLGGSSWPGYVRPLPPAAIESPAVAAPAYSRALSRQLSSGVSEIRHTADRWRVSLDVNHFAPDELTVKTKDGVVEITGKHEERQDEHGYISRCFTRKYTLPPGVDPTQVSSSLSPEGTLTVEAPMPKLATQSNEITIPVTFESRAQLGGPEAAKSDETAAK
Chain of ARG1 (P05089 whole entry): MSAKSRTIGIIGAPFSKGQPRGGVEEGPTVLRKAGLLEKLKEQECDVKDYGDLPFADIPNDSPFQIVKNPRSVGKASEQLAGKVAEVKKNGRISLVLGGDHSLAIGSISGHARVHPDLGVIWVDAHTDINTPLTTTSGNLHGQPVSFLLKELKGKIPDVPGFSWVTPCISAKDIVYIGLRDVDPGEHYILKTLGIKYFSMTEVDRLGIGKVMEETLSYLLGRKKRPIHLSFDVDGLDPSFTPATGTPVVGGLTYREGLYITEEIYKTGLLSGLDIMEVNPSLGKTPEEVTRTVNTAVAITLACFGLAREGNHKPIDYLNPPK
Chain of DNAJA2 (O60884 1-409 limits assumed): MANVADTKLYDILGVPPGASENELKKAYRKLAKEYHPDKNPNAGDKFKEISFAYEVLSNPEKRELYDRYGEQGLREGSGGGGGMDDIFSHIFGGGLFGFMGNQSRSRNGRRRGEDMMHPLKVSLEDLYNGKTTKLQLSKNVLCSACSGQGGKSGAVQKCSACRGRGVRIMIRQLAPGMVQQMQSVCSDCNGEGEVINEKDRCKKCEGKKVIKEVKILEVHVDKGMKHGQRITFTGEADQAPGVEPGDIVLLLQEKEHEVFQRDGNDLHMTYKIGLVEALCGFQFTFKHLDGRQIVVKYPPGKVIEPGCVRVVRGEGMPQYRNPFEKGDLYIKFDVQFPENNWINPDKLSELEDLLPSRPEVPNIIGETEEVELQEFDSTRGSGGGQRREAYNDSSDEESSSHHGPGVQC
Chain of SRSF1 (Q07955 2-248 limits assumed): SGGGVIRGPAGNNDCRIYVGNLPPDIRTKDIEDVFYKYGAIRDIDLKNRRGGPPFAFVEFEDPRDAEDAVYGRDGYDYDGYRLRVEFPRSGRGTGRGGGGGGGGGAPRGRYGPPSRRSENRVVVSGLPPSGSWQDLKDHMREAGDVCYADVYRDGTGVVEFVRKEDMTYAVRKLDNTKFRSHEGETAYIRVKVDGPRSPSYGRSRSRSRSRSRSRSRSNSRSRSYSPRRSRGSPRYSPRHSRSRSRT
Chain of HIST1H1E (P10412 2-219 limits assumed): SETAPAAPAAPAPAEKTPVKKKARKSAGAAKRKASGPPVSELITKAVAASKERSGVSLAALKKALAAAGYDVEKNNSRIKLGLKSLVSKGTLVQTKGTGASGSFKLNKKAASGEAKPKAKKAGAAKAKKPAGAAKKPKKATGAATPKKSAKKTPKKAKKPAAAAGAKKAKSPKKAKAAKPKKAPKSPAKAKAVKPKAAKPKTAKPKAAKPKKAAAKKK
Chain of DEFA3 (P59666 65-94 limits assumed): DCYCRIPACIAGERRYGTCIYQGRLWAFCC
Chain of PSMA7 (O14818 whole entry): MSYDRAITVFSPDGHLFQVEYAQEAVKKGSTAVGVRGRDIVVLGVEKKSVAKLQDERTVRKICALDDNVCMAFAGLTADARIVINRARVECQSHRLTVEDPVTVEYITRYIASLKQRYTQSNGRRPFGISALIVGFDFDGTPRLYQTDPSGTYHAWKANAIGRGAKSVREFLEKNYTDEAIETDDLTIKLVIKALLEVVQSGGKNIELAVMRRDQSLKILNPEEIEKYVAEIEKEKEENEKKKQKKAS
Chain of TAGLN (Q01995 2-201 limits assumed): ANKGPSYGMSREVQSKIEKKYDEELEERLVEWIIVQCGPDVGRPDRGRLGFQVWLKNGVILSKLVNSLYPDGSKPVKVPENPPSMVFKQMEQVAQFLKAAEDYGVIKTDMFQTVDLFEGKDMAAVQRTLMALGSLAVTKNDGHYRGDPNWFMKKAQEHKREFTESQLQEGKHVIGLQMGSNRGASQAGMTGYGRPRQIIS
Chain of PBXIP1 (Q96AQ6 30-731 limits assumed): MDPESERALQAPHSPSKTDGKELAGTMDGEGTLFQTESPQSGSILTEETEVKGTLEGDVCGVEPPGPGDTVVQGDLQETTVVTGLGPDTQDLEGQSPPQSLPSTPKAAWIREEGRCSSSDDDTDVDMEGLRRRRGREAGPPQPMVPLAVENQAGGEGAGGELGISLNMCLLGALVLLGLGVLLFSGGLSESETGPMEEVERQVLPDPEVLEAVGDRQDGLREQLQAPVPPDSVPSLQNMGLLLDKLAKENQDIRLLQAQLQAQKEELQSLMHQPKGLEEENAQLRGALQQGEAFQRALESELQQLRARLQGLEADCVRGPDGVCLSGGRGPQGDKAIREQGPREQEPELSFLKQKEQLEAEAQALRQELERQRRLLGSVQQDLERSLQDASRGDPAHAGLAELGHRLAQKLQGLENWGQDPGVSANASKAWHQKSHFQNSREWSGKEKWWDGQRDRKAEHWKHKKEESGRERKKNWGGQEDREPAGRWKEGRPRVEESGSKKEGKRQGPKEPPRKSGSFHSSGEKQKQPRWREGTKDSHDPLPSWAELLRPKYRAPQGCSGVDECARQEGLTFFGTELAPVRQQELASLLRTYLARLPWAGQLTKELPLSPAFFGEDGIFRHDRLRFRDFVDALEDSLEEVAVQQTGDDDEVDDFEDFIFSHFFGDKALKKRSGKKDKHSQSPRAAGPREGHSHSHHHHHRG

“IgG control (Millipore Sigma 12-371) (antibody)” was tested, and the co-IP mass spectrometry count (RPS18) was 9, the co-IP mass spectrometry count (DEFA3) was 5 and the co-IP mass spectrometry count (RPL27A [1]) was 0. For the same substance, the co-IP mass spectrometry count (RPL3) was 5, the co-IP mass spectrometry count (CDSN [2]) was 0 and the co-IP mass spectrometry count (RPS16) was 8. The co-IP mass spectrometry count (TNKS1BP1) was 2, the co-IP mass spectrometry count (HSPB1) was 0 and the co-IP mass spectrometry count (RPS19) was 3. For the same substance, the co-IP mass spectrometry count (ARG1) was 4, the co-IP mass spectrometry count (RPL5) was 0 and the co-IP mass spectrometry count (DNAJA2) was 0. The co-IP mass spectrometry count (NCCRP1) was 0, the co-IP mass spectrometry count (HIST1H1E) was 0 and the co-IP mass spectrometry count (ITGB3) was 0. For the same substance, the co-IP mass spectrometry count (SRSF3) was 3, the co-IP mass spectrometry count (SRSF1) was 3 and the co-IP mass spectrometry count (RPS13) was 2. The co-IP mass spectrometry count (TAGLN) was 0, the co-IP mass spectrometry count (TXN) was 0 and the co-IP mass spectrometry count (RPS23) was 9. For the same substance, the co-IP mass spectrometry count (EIF4G1) was 2, the co-IP mass spectrometry count (PBXIP1) was 0 and the co-IP mass spectrometry count (POF1B) was 0. The co-IP mass spectrometry count (RPL35) was 0, the co-IP mass spectrometry count (MTCH2) was 0 and the co-IP mass spectrometry count (RPS2) was 12. The co-IP mass spectrometry count (RPS8) was 6, the co-IP mass spectrometry count (CFL1) was 3 and the co-IP mass spectrometry count (RPL37A) was 3. For the same substance, the co-IP mass spectrometry count (HNRNPU) was 0, the co-IP mass spectrometry count (MTDH [3]) was 0 and the co-IP mass spectrometry count (RPL19) was 2. It also gave a co-IP mass spectrometry count (SSRP1) of 0, a co-IP mass spectrometry count (TMEM59) of 0 and a co-IP mass spectrometry count (PSMA7) of 0. The co-IP mass spectrometry count (RPL22) was 0 and the co-IP mass spectrometry count (LIMA1) was 0.
With “N-terminal FLAG tagged B3GNT2 (from UniProt Q9NY97 1-397) (enzyme)” the co-IP mass spectrometry count (RPL27A [4]) was 7, the co-IP mass spectrometry count (CDSN [5]) was 5 and the co-IP mass spectrometry count (MTDH [6]) was 0.
